A short description of this data set: label from the status in PepcDB records.

Take “MIVSITLLILAVGVFAIILARFIRIPYTLLLVVLGFFLSLFTVAFGIDTGVRASNFQDLMLFILLPVLIFEAAFALNSKLLFKYLPNVLTLATLGLIISTLVIAVFLYFGIAHSGFPFIAALLTGVVISATDPVAVVGQLKALKAPDDLNVLIEGESLFNDATAIVLFSIILSIALGQSEPDLTSAIITFSKVFFGGIIVGSVFGYIAALLVKIIDTSVPHMVVITLFLAYGTFYIAEHLFHVSGIVAVMFAALLFKKSAQDQLKDVHTGLHNIWESLGFIANIFVFVLLGLVVSLNMFTQMWLAIILAIVGAFIARVIAVYCSVWLNQVIVGQPINRKYPPIMIWGGLRGAVTIALVLSLPTELPYWWTIQSIGFGIVLFTLIVQATTTPLLVKKLNI”: the protein production entry is on record as “failed”.

Consider “MIVSKRTFRSLYIPILIEQLFILIMGQADTLMLNSYSTDAVAASGMISQILMLITFLITIIHVGTNIRIVHLKEHQPSSISQEIYHNLLFNSIVSIVFTIVIGIAFELILRLFQVPQDIFKLTYQFGMIILSVLTLTTCHMYIGTVLRVMNHASSATRITIISNVTNIILNGIVLFIIPQYVGNPVLGVAVVTAFSRLLGCTLALIALIQIFRPFKHYFKLSWKKIYQVSTLGIPTAGEQISYNFAQTFTTAFIAMLGTQVIAAKSVSTVLSGLSFSCAMAFSAASQIYLGKFISRRRYRTLKKVVIKSIWFNITQSFMIMTCVFIGFIVCGRWITHDIQTYHLIIYYLVILFGLEPIRAINNLIVDLLNVTGDVRYPVTVSVVTTWLLLLPGSYLLGIHWRLGYTGIILVSIADEALRFIIMYLRWRNDRWQARMKQIGV”, for which the protein production entry was “failed”.

For “MIVVKVGGAEGINYEAVAKDAASLWKEGVKLLLVHGGSAETNKVAEALGHPPRFLTHPGGQVSRLTDRKTLEIFEMVYCGLVNKRLVELLQKEGANAIGLSGLDGRLFVGRRKTAVKYVENGKVKVHRGDYTGTVEEVNKALLDLLLQAGYLPVLTPPALSYENEAINTDGDQIAALLATLYGAEALVYLSNVPGLLARYPDEASLVREIPVERIEDPEYLALAQGRMKRKVMGAVEAVKGGVKRVVFADGRVENPIRRALSGEGTVVR”, the protein production entry is on record as “not failed”.

For “MIVVTGATGNIGRPLTRALAEAGEQVTAVSRHPAAVPDGVRHLVADLAEPAGLRPALTGAKSLFLLLSGDLHALGANPADLIGEAARSGVRRVVLLSTLGVVTRPFGATRIAMRELEDTLRESGLEWAVLRPGGFASNALWWAESVRARRVVAAPFGDVGVPVVDPADIAAVAAACLLEDRHTGGAYELTGPEVITPRGQTEAIAAALGAPVAFHELTREEARTAMARSMPAELADDTLDILGNPSPAELRVSPDIERVLGRAPRPFADWAARNADAFR”, the protein production entry is “failed”.

Consider “MIWILASLIAGIALRAWSVFILPLAYIIGRRNRDLGLLTYFLYGVLLVREVFVRDLISEEAFVSLGLLVPSVLALREIGEEFRVDVRGLVGLGVMSLGFIYKPALVLGVIITGISSIPWIELSILTLLFLVSYVAREHQELVVVGFVLVMSILLAKPIERREMRVKSGRGF”, for which the protein production entry was “failed”.

As to “MIWIVGSGTCRGQTTERAKEIIERAEVIYGSRRALELAGVVDDSRARILRSFKGDEIRRIMEEGREREVAVISTGDPMVAGLGRVLREIAEDVEIKIEPAISSVQVALARLKVDLSEVAVVDCHAKDFDAELTELLKYRHLLILADSHFPLERLGKRRVVLLENLCMEGERIREGNADSIELESDYTIIFVEREVME”, the protein production result is “not failed”.

Turning to “MIYEGAVFRPPSEASSLILQVSLGCRHNQCTFCSMYKGKSFRIRSIEEIMDMIDAGSKAYPHMERIFLADGDALAVETDVLSNVLETLYQRFPRLKRVGIYGGPKDILEKSPAELARLKEQGLSIVYLGVESGSGLILNLIRKGVTPEEMINAGQKVVASGLKLSCTIILGLGGRERSPEHAVETGKVISAINPHYLGALTLMLAPDAPLTQKIKSGEFTPLNKWESLIELELMVQGLNLKDCLFRSNHASNYLPLKAHLPHDKATLLSTLKEVIEENREEVLRPEYWRGL”, the protein production entry is “failed”.

In the case of “MIYEPAEDSELLLEAALRELKPDDEVIEVGAGSGFVAERLKGKCKCILTTDISPFAAMELRRKGLDVVMTDIAKGIRKKFSLVLFNPPYVELEDELRRGDWLDVAIDGGKKGVKVIKKFLDSLDEIMAERGRAILIASSQNEPDVFDLIDERGFRYEIVGERGLFFEKLFAIKIWKE”, the protein production entry was “failed”.

With “MKADILLVSHSKMITDGIKEMIEQMNASEEITIHSLGGTSDGSLGSDPMKIIDTINEADSDREFLIFADLGSAVLSSELAFDMLEEDQQKHYHLVDAPLVEGAFASAITAGVSDDLTQILAEAQNAGKKGWN”, the protein production result is given as “not failed”.

(Values after a protein production outcome set (Wang et al. 2014).)
